Consider eight molecules from patent publication US12668821B2, “Enzymatic production of glucaric acid from glucuronic acid” (THE GOVERNING COUNCIL OF THE UNIVERSITY OF TORONTO, priority 2019, dated 2026).

Entries after “also recorded” stand apart in the source; their conditions may differ.

Data set [1] can be described thus: Degradation of MeGlcA by H2O2 (HPAEC-PAD). It is filed as physicochemical. The conditions noted are these: up to 100 mM H2O2, 50 mM Tris pH 8.0, 40° C., 16 h. As for the experimental part:
FIG. 10: HPAEC-PAD analyses of H2O2 effects on AxyAgu115A activity and MeGlcA degradation.
AxyAgu115A (10 μg/mL) was incubated with 1% glucuronoxylan in 50 mM Tris buffer pH 8.0 in the presence of various H2O2 concentrations (0.01-100 mM). MeGlcA (1 mM) was also incubated with the same H2O2 concentrations. The reactions were kept in the dark at 40° C. for 16 h in a thermomixer (Eppendorf, USA). Catalase (200 μg/mL) was then added, and the reactions were kept incubating for another 30 min to remove H2O2 before HPAEC-PAD analysis.
Even at 200 mM H2O2, GOOX-Y300A retained more than 50% of its activity on glucose and 100% of its activity on cellobiose (Vuong et al., 2016).

Data set [2] is described as follows: Activity screening of GOOX variants and glucose oxidase on GlcA. The following applies: enzyme 16 nM, 37° C., 10 mM GlcA (FIG. 11 legend; b102 says 100 mM), 100 mM Tris pH 8.0 (GOOX variants) or 50 mM sodium acetate pH 5.0 (GO). It is filed as biochemical. As for the experimental part:
(§1) FIG. 11: Activity screening of GOOX variants and glucose oxidase (GO) on GlcA and MeGlcA substrates. The enzymes (16 nM) were assayed at 37° C. with 10 mM GlcA and 1 mM MeGlcA in 100 mM Tris buffer pH 8.0 (for GOOX variants) or 50 mM sodium acetate pH 5.0 (for GO). The dotted line indicates the activity of GOOX-VN for MeGlcA for ease of comparison. “CtCBM22A-wtGOOX” and “CtCBM22A-Y300A” represent fusion proteins where the C terminus of the xylan-binding protein CtCBM22A (described in Vuong and Master, 2014) is fused to the N terminus GOOX.
(§2) The specific activity of GOOX-Y300A (16 nM) on MeGlcA and GlcA (1 mM) was measured in 50 mM Tris buffer pH 8.0 at 40° C. The amount of methyl glucaric acid was determined by measuring the release of H2O2 using a previously published colorimetric assay (Lin et al., 1991). The kinetics of GOOX-Y300A on these acidic sugars were measured at the same condition, but using up to 60 mM MeGlcA and GlcA and in 0.3 M Tris buffer pH 8.0.

Data set [3] can be described thus: Activity screening of GOOX variants and glucose oxidase on MeGlcA. The conditions noted are these: enzyme 16 nM, 37° C., 1 mM MeGlcA (FIG. 11 legend; b102 says 10 mM), 100 mM Tris pH 8.0 (GOOX variants) or 50 mM sodium acetate pH 5.0 (GO). It is filed as biochemical. As for the experimental part:
as §1, §2

As for `CO[C@@H]([C@H](O)[C@@H](O)C=O)[C@H](O)C(=O)O` [MeGlcA, 4-O-methyl D-glucuronic acid], the “loss of MeGlcA in the presence of H2O2” value in data set [1] was “no loss of MeGlcA; also recorded: did not cause a loss of MeGlcA”.

B1: E314A: GOOX variant with E314A relative to SEQ ID NO: 1 (protein, listed as Sarocladium strictum)
chain: NSINACLAAADVEFHEEDSEGWEMDGTAFNLRVDYDPVAIAIPRSTEDIAAAVQCGLDAGVQISAKGGGHSYGSYGFGGEDGHLMLELDRMYRVSVDDDNVATIQGGARLGYTALELLDQGNRALTHGTCPAVGIGGHVLGGGYGFATHTHGLTLDWLVGATVVLADASIVHVSKTENADLFWALRGGGGGFAIVSEFEFNTFEAPEIITTYQVTTTWNRKQHVAGLKALQDWAENTMPRELSMRLEINANALNWEGNYFGNAKDLKKVLQPIMKKAGGKSTISKLVETDWYGQINTYLYGADLNITYNYDVHAYFYANSLTAPRLSDEAISAFVDYKFDNSSVRPGRGWWIQWDFHGGKNSALASHSNDETAYAHRDQLWLWQFYDNIYDYENNTSPYPESGFEFMQGFVATIEDTLPEDRKGKYFNYADTTLDKEEAQKLYWRGNLEKLQAIKAKYDPEDVFGNVVSVEPIA
modifications: (1)..(206) FAD-binding domain; (207)..(474) substrate-binding domain
Consider B1, for which the “nmol oxidized GlcA Mean” value in data set [2] is -0.03292 nmol. Further, the “nmol oxidized MeGlcA Mean” value in data set [3] is given as 1.0403 nmol.

B2: Q384A: GOOX variant with Q384A relative to SEQ ID NO: 1 (protein, listed as Sarocladium strictum)
chain: NSINACLAAADVEFHEEDSEGWEMDGTAFNLRVDYDPVAIAIPRSTEDIAAAVQCGLDAGVQISAKGGGHSYGSYGFGGEDGHLMLELDRMYRVSVDDDNVATIQGGARLGYTALELLDQGNRALTHGTCPAVGIGGHVLGGGYGFATHTHGLTLDWLVGATVVLADASIVHVSKTENADLFWALRGGGGGFAIVSEFEFNTFEAPEIITTYQVTTTWNRKQHVAGLKALQDWAENTMPRELSMRLEINANALNWEGNYFGNAKDLKKVLQPIMKKAGGKSTISKLVETDWYGQINTYLYGADLNITYNYDVHEYFYANSLTAPRLSDEAISAFVDYKFDNSSVRPGRGWWIQWDFHGGKNSALASHSNDETAYAHRDQLWLWAFYDNIYDYENNTSPYPESGFEFMQGFVATIEDTLPEDRKGKYFNYADTTLDKEEAQKLYWRGNLEKLQAIKAKYDPEDVFGNVVSVEPIA
modifications: (1)..(206) FAD-binding domain; (207)..(474) substrate-binding domain
For the molecule B2, the “nmol oxidized GlcA Mean” value in data set [2] was -0.00914 nmol. Besides, the “nmol oxidized MeGlcA Mean” value in data set [3] is listed as 0.4569 nmol.

B3: Y72A: GOOX variant with Y72A relative to SEQ ID NO: 1 (protein, listed as Sarocladium strictum)
chain: NSINACLAAADVEFHEEDSEGWEMDGTAFNLRVDYDPVAIAIPRSTEDIAAAVQCGLDAGVQISAKGGGHSAGSYGFGGEDGHLMLELDRMYRVSVDDDNVATIQGGARLGYTALELLDQGNRALTHGTCPAVGIGGHVLGGGYGFATHTHGLTLDWLVGATVVLADASIVHVSKTENADLFWALRGGGGGFAIVSEFEFNTFEAPEIITTYQVTTTWNRKQHVAGLKALQDWAENTMPRELSMRLEINANALNWEGNYFGNAKDLKKVLQPIMKKAGGKSTISKLVETDWYGQINTYLYGADLNITYNYDVHEYFYANSLTAPRLSDEAISAFVDYKFDNSSVRPGRGWWIQWDFHGGKNSALASHSNDETAYAHRDQLWLWQFYDNIYDYENNTSPYPESGFEFMQGFVATIEDTLPEDRKGKYFNYADTTLDKEEAQKLYWRGNLEKLQAIKAKYDPEDVFGNVVSVEPIA
modifications: (1)..(206) FAD-binding domain; (207)..(474) substrate-binding domain
On to B3, for which the “nmol oxidized GlcA Mean” value in data set [2] was -0.01097 nmol. Besides, in data set [3], the “nmol oxidized MeGlcA Mean” value is 0.8997 nmol.

B4: Q384N: GOOX variant with Q384N relative to SEQ ID NO: 1 (protein, listed as Sarocladium strictum)
chain: NSINACLAAADVEFHEEDSEGWEMDGTAFNLRVDYDPVAIAIPRSTEDIAAAVQCGLDAGVQISAKGGGHSYGSYGFGGEDGHLMLELDRMYRVSVDDDNVATIQGGARLGYTALELLDQGNRALTHGTCPAVGIGGHVLGGGYGFATHTHGLTLDWLVGATVVLADASIVHVSKTENADLFWALRGGGGGFAIVSEFEFNTFEAPEIITTYQVTTTWNRKQHVAGLKALQDWAENTMPRELSMRLEINANALNWEGNYFGNAKDLKKVLQPIMKKAGGKSTISKLVETDWYGQINTYLYGADLNITYNYDVHEYFYANSLTAPRLSDEAISAFVDYKFDNSSVRPGRGWWIQWDFHGGKNSALASHSNDETAYAHRDQLWLWNFYDNIYDYENNTSPYPESGFEFMQGFVATIEDTLPEDRKGKYFNYADTTLDKEEAQKLYWRGNLEKLQAIKAKYDPEDVFGNVVSVEPIA
modifications: (1)..(206) FAD-binding domain; (207)..(474) substrate-binding domain
For B4, the “nmol oxidized GlcA Mean” value in data set [2] is -0.02195 nmol. Further, in data set [3], the “nmol oxidized MeGlcA Mean” value is given as 0.683 nmol.

B5: N388S-V38A: GOOX variant with N388S and V38A relative to SEQ ID NO: 1 (protein, listed as Sarocladium strictum)
chain: NSINACLAAADVEFHEEDSEGWEMDGTAFNLRVDYDPAAIAIPRSTEDIAAAVQCGLDAGVQISAKGGGHSYGSYGFGGEDGHLMLELDRMYRVSVDDDNVATIQGGARLGYTALELLDQGNRALTHGTCPAVGIGGHVLGGGYGFATHTHGLTLDWLVGATVVLADASIVHVSKTENADLFWALRGGGGGFAIVSEFEFNTFEAPEIITTYQVTTTWNRKQHVAGLKALQDWAENTMPRELSMRLEINANALNWEGNYFGNAKDLKKVLQPIMKKAGGKSTISKLVETDWYGQINTYLYGADLNITYNYDVHEYFYANSLTAPRLSDEAISAFVDYKFDNSSVRPGRGWWIQWDFHGGKNSALASHSNDETAYAHRDQLWLWQFYDSIYDYENNTSPYPESGFEFMQGFVATIEDTLPEDRKGKYFNYADTTLDKEEAQKLYWRGNLEKLQAIKAKYDPEDVFGNVVSVEPIA
modifications: (1)..(206) FAD-binding domain; (207)..(474) substrate-binding domain
B5: in data set [2], the “nmol oxidized GlcA Mean” value was 0.02835 nmol. The “nmol oxidized MeGlcA Mean” value in data set [3] is on record as 0.9559 nmol.

B6: W351F: GOOX variant with W351F relative to SEQ ID NO: 1 (protein, listed as Sarocladium strictum)
chain: NSINACLAAADVEFHEEDSEGWEMDGTAFNLRVDYDPVAIAIPRSTEDIAAAVQCGLDAGVQISAKGGGHSYGSYGFGGEDGHLMLELDRMYRVSVDDDNVATIQGGARLGYTALELLDQGNRALTHGTCPAVGIGGHVLGGGYGFATHTHGLTLDWLVGATVVLADASIVHVSKTENADLFWALRGGGGGFAIVSEFEFNTFEAPEIITTYQVTTTWNRKQHVAGLKALQDWAENTMPRELSMRLEINANALNWEGNYFGNAKDLKKVLQPIMKKAGGKSTISKLVETDWYGQINTYLYGADLNITYNYDVHEYFYANSLTAPRLSDEAISAFVDYKFDNSSVRPGRGWFIQWDFHGGKNSALASHSNDETAYAHRDQLWLWQFYDNIYDYENNTSPYPESGFEFMQGFVATIEDTLPEDRKGKYFNYADTTLDKEEAQKLYWRGNLEKLQAIKAKYDPEDVFGNVVSVEPIA
modifications: (1)..(206) FAD-binding domain; (207)..(474) substrate-binding domain
On to B6, for which, in data set [2], the “nmol oxidized GlcA Mean” value was -0.04298 nmol. Further, the “nmol oxidized MeGlcA Mean” value in data set [3] stood at 0.08201 nmol.

B7: wtGOOX: Wild-type gluco-oligosaccharide oxidase from Sarocladium strictum, SEQ ID NO: 1, with C-terminal myc-tag and 6xHis-tag (protein, listed as Sarocladium strictum)
chain: NSINACLAAADVEFHEEDSEGWEMDGTAFNLRVDYDPVAIAIPRSTEDIAAAVQCGLDAGVQISAKGGGHSYGSYGFGGEDGHLMLELDRMYRVSVDDDNVATIQGGARLGYTALELLDQGNRALTHGTCPAVGIGGHVLGGGYGFATHTHGLTLDWLVGATVVLADASIVHVSKTENADLFWALRGGGGGFAIVSEFEFNTFEAPEIITTYQVTTTWNRKQHVAGLKALQDWAENTMPRELSMRLEINANALNWEGNYFGNAKDLKKVLQPIMKKAGGKSTISKLVETDWYGQINTYLYGADLNITYNYDVHEYFYANSLTAPRLSDEAISAFVDYKFDNSSVRPGRGWWIQWDFHGGKNSALASHSNDETAYAHRDQLWLWQFYDNIYDYENNTSPYPESGFEFMQGFVATIEDTLPEDRKGKYFNYADTTLDKEEAQKLYWRGNLEKLQAIKAKYDPEDVFGNVVSVEPIA
modifications: C-terminal myc-tag and 6xHis-tag; (1)..(206) FAD-binding domain; (207)..(474) substrate-binding domain
As to B7, in data set [2], the “nmol oxidized GlcA Mean” value was -0.04572 nmol. For the same molecule, in data set [3], the “nmol oxidized MeGlcA Mean” value is listed as 0.9032 nmol.
